Measured values: the supplement of paper PMC10567573

B1: STK38L (parent)
chain: FLPGGDMMTLLMKKDTLTEEETQF

Variants of: B1
Assay: protein stability index of a GFP-peptide fusion (GPS, HEK-293T) (PSI 1-6); higher = more stable
Settings: c terminus: a fixed tail appended
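Further: lentivirally expressed fusions sorted by FACS into six bins by GFP to DsRed ratio, PSI derived from sequencing read proportions per bin multiplied by bin number.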

| Variant | protein stability index |
| --- | --- |
| FLPGGDMMTLLYKKDTLTEEETQF [M12Y] | 2.84 |
| FLPGGDMMTLLGKKDTLTEEETQF [M12G] | 3.72 |
| FLPGGDMMTLLRKKDTLTEEETQF [M12R] | 3.48 |
| FLPGGDMMTLLNKKDTLTEEETQF [M12N] | 3.86 |
| FLPGGDMMTLLDKKDTLTEEETQF [M12D] | 4.06 |
| FLPGGDMMTLLFKKDTLTEEETQF [M12F] | 2.54 |
| FLPGGDMMTLLPKKDTLTEEETQF [M12P] | 3.5 |
| FLPGGDMMTLLCKKDTLTEEETQF [M12C] | 3.16 |
| FLPGGDMMTLLVKKDTLTEEETQF [M12V] | 3.36 |
| FLPGGDMMTLLEKKDTLTEEETQF [M12E] | 3.68 |
| FLPGGDMMTLLKKKDTLTEEETQF [M12K] | 3.69 |
| FLPGGDMMTLLWKKDTLTEEETQF [M12W] | 1.95 |
| FLPGGDMMTLLAKKDTLTEEETQF [M12A] | 2.81 |
| FLPGGDMMTLLLKKDTLTEEETQF [M12L] | 2.35 |
| FLPGGDMMTLLSKKDTLTEEETQF [M12S] | 3.48 |
| FLPGGDMMTLLIKKDTLTEEETQF [M12I] | 2.56 |
| FLPGGDMMTLLQKKDTLTEEETQF [M12Q] | 3.25 |
| FLPGGDMMTLLTKKDTLTEEETQF [M12T] | 3.49 |
| FLPGGDMMTLLHKKDTLTEEETQF [M12H] | 3.69 |
| FLPGGDMMSLLMKKDTLTEEETQF [T9S] | 2.38 |
| FLPGGDMMGLLMKKDTLTEEETQF [T9G] | 2.71 |
| FLPGGDMMELLMKKDTLTEEETQF [T9E] | 3.2 |
| FLPGGDMMKLLMKKDTLTEEETQF [T9K] | 2.12 |
| FLPGGDMMPLLMKKDTLTEEETQF [T9P] | 4.22 |

| Variant | protein stability index |
| --- | --- |
| FLPGGDMMVLLMKKDTLTEEETQF [T9V] | 1.81 |
| FLPGGDMMMLLMKKDTLTEEETQF [T9M] | 3.26 |
| FLPGGDMMNLLMKKDTLTEEETQF [T9N] | 3.01 |
| FLPGGDMMLLLMKKDTLTEEETQF [T9L] | 2.32 |
| FLPGGDMMILLMKKDTLTEEETQF [T9I] | 2.19 |
| FLPGGDMMDLLMKKDTLTEEETQF [T9D] | 4.35 |
| FLPGGDMMQLLMKKDTLTEEETQF [T9Q] | 2.69 |
| FLPGGDMMWLLMKKDTLTEEETQF [T9W] | 2.2 |
| FLPGGDMMFLLMKKDTLTEEETQF [T9F] | 2.16 |
| FLPGGDMMRLLMKKDTLTEEETQF [T9R] | 1.69 |
| FLPGGDMMYLLMKKDTLTEEETQF [T9Y] | 2 |
| FLPGGDMMHLLMKKDTLTEEETQF [T9H] | 2.45 |
| FLPGGDMMCLLMKKDTLTEEETQF [T9C] | 2.01 |
| FLPGGDMMTLLMHKDTLTEEETQF [K13H] | 2.37 |
| FLPGGDMMTLLMSKDTLTEEETQF [K13S] | 2.56 |
| FLPGGDMMTLLMPKDTLTEEETQF [K13P] | 2.24 |
| FLPGGDMMTLLMVKDTLTEEETQF [K13V] | 1.95 |
| FLPGGDMMTLLMWKDTLTEEETQF [K13W] | 1.69 |
| FLPGGDMMTLLMIKDTLTEEETQF [K13I] | 1.87 |
| FLPGGDMMTLLMFKDTLTEEETQF [K13F] | 2.21 |
| FLPGGDMMTLLMEKDTLTEEETQF [K13E] | 3.03 |
| FLPGGDMMTLLMQKDTLTEEETQF [K13Q] | 2.42 |
| FLPGGDMMTLLMMKDTLTEEETQF [K13M] | 2.28 |
| FLPGGDMMTLLMRKDTLTEEETQF [K13R] | 2.21 |

| Variant | protein stability index |
| --- | --- |
| FLPGGDMMTLLMTKDTLTEEETQF [K13T] | 2.69 |
| FLPGGDMMTLLMLKDTLTEEETQF [K13L] | 2.05 |
| FLPGGDMMTLLMCKDTLTEEETQF [K13C] | 1.67 |
| FLPGGDMMTLLMYKDTLTEEETQF [K13Y] | 2.02 |
| FLPGGDMMTLLMAKDTLTEEETQF [K13A] | 2.21 |
| FLPGGDMMTLLMNKDTLTEEETQF [K13N] | 2.49 |
| FLPGGDMMTLLMDKDTLTEEETQF [K13D] | 3.66 |
| FLPGGDMMTLLMGKDTLTEEETQF [K13G] | 2.3 |
| FLPGGDMMTELMKKDTLTEEETQF [L10E] | 4.71 |
| FLPGGDMMTSLMKKDTLTEEETQF [L10S] | 4.07 |
| FLPGGDMMTMLMKKDTLTEEETQF [L10M] | 3.16 |
| FLPGGDMMTRLMKKDTLTEEETQF [L10R] | 3.32 |
| FLPGGDMMTHLMKKDTLTEEETQF [L10H] | 3.38 |
| FLPGGDMMTQLMKKDTLTEEETQF [L10Q] | 3.91 |
| FLPGGDMMTCLMKKDTLTEEETQF [L10C] | 3.45 |
| FLPGGDMMTKLMKKDTLTEEETQF [L10K] | 3.11 |
| FLPGGDMMTPLMKKDTLTEEETQF [L10P] | 3.9 |
| FLPGGDMMTILMKKDTLTEEETQF [L10I] | 2.64 |
| FLPGGDMMTFLMKKDTLTEEETQF [L10F] | 2.75 |
| FLPGGDMMTWLMKKDTLTEEETQF [L10W] | 1.98 |
| FLPGGDMMTALMKKDTLTEEETQF [L10A] | 3.73 |
| FLPGGDMMTGLMKKDTLTEEETQF [L10G] | 3.79 |
| FLPGGDMMTDLMKKDTLTEEETQF [L10D] | 4.67 |
| FLPGGDMMTTLMKKDTLTEEETQF [L10T] | 3.78 |

| Variant | protein stability index |
| --- | --- |
| FLPGGDMMTNLMKKDTLTEEETQF [L10N] | 4.26 |
| FLPGGDMMTYLMKKDTLTEEETQF [L10Y] | 2 |
| FLPGGDMMTVLMKKDTLTEEETQF [L10V] | 2.98 |
| FLPGGDMMTLYMKKDTLTEEETQF [L11Y] | 2.41 |
| FLPGGDMMTLEMKKDTLTEEETQF [L11E] | 4.25 |
| FLPGGDMMTLNMKKDTLTEEETQF [L11N] | 3.4 |
| FLPGGDMMTLIMKKDTLTEEETQF [L11I] | 2.53 |
| FLPGGDMMTLHMKKDTLTEEETQF [L11H] | 3.43 |
| FLPGGDMMTLMMKKDTLTEEETQF [L11M] | 2.56 |
| FLPGGDMMTLRMKKDTLTEEETQF [L11R] | 3.29 |
| FLPGGDMMTLFMKKDTLTEEETQF [L11F] | 1.84 |
| FLPGGDMMTLTMKKDTLTEEETQF [L11T] | 3.07 |
| FLPGGDMMTLDMKKDTLTEEETQF [L11D] | 4.19 |
| FLPGGDMMTLVMKKDTLTEEETQF [L11V] | 3.18 |
| FLPGGDMMTLSMKKDTLTEEETQF [L11S] | 3.41 |
| FLPGGDMMTLPMKKDTLTEEETQF [L11P] | 3.89 |
| FLPGGDMMTLKMKKDTLTEEETQF [L11K] | 3.91 |
| FLPGGDMMTLQMKKDTLTEEETQF [L11Q] | 3.89 |
| FLPGGDMMTLAMKKDTLTEEETQF [L11A] | 3.29 |
| FLPGGDMMTLGMKKDTLTEEETQF [L11G] | 2.89 |
| FLPGGDMMTLWMKKDTLTEEETQF [L11W] | 1.56 |
| FLPGGDMMTLCMKKDTLTEEETQF [L11C] | 2.63 |
